T1: mouse PD-1 (mouse, UniProt Q02242 25-169, limits assumed)
T1 sequence (looked up): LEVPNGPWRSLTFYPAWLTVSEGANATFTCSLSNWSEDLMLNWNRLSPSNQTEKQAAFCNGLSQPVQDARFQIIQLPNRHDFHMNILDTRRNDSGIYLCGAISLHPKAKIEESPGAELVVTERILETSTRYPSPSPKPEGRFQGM

T2: human CTLA4 (human, UniProt P16410 36-161, limits assumed)
T2 sequence (looked up): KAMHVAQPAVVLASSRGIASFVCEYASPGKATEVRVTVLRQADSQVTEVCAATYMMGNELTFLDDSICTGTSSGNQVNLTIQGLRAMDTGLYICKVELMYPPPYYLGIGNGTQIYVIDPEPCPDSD

T3: human ICOS (human, UniProt Q9Y6W8 21-140, limits assumed)
T3 sequence (looked up): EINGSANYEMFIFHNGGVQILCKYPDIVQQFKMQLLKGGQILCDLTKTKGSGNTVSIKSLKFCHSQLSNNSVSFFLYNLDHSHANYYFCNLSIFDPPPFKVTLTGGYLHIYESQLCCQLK

B1: 22A5 murine anti-PD-1 antibody (antibody, V domains shown)
VH: EVKLVESGGGLVKPGGSLKLSCSASGFSFSYYDMSWVRQTPEKGLEWVATISGGGRNTYFIDSVKGRFTISRDNVKNNLYLLMSSLRSEDTALYYCASPYEGAVDFWGQGTSVTVSS
VL: DIVMTQSHKVMSTSVGDRVSITCKASQDVDNAVAWYQQNPGQSPKLLIKWASTRHHGVPDRFTGSGSGTDFTLTISTVQSEDLADFFCQQYSTFPYTFGGGTKLEIKR
notes: Purified hybridoma antibody; also called 22A5-mIgG1
B2: 15H5 murine anti-PD-1 antibody (antibody, V domains shown)
VH: EVKLVESGGGLVKPGGSLKLSCAASGFAFRSYDMSWVRQTPEKILEWVATISGGGSYTYYQDSVKGRFTISRDNARNTLYLQMSSLRSEDTALYYCASPYGPYFDYWGQGTTLTVSS
VL: DIQMNQSPSSLSASLGDTITITCHASQSINVWLSWYQQKPGNIPKLLIYRASNLHTGVPSRFSGSGSGTGFTLTISSLQPDDIATYYCQQGQSYPWTFGGGTKLEIKR
notes: Purified hybridoma antibody; also called 15H5-mIgG1
B3: 13F1 murine anti-PD-1 antibody (antibody, V domains shown)
VH: DVQLQESGPGLVKPSQSLSLTCTVTGYSITSDYAWNWIRQFPGNQLEWMAYISYSGYTSYNPSLKSRISITRDTSKNQFFLQLNSVTTEDTATYYCARSLDYDYGTMDYWGQGTSVTVSS
VL: QIVLSQSPAILSASPGEKVTMTCRANSSVSSMHWYQQKPGSSPEPWIYAISNLAFGVPTRFSGSGSGTSYSLTISRVEAEDAATYFCQQWSSRPPTFGGGTKLEIKR
notes: Purified hybridoma antibody; also called 13F1-mIgG1
B4: 7A4 murine anti-PD-1 antibody (antibody, V domains shown)
VH: QIHLVQSGPELKKPGETVKISCKASGYTFTNFGMNWVKQAPGKGLKWMGWISGYTREPTYAADFKGRFAISLETSASTAYLQINDLKNEDMATYFCARDVFDYWGQGTTLTVSS
VL: DIVLTQSPASLAVSLGQRATISCRASESVDNYGYSFMNWFQQKPGQPPKLLIYRASNLESGIPARFSGSGSRTNFTLTINPVEADDVATYFCQQSNADPTFGGGTNLEIKR
notes: Purified hybridoma antibody; also called 7A4-mIgG1

Chain of human CD28 (P10747 19-152 limits assumed): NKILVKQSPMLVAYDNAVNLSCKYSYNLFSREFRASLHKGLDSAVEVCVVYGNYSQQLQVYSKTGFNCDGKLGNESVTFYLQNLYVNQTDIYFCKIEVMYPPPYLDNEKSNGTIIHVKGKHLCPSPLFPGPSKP

For one assay, the target named is T4, human PD-1 on cells (293T cells transfected with human PD-1) (human, UniProt Q15116 25-288).
T4 construct: whole, on cells; Also used as the target for the functional rows, where PD-1 stands on human T cells
T4 sequence (Q15116 25-288): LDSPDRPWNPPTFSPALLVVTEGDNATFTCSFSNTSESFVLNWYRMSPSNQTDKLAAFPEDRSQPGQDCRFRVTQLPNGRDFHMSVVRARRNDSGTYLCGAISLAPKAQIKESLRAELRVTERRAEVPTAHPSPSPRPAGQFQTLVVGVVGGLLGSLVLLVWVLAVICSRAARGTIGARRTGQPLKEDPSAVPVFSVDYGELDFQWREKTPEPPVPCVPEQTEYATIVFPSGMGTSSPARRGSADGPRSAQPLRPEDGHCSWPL
Briefly: FACS on hPD-1-293T cells. As to the method: The cells were incubated with the indicated antibody (20 ug/ml with the dilution of ⅕) at 4° C. for 1 h. Cells were washed three times with FACS buffer. A secondary antibody (PE Goat anti-mouse: 1:200; PE mouse anti-human: 1:10) was added to the cells at 100 ul/well, and incubated at 4° C. for 40min. Cells were washed three times with FACS buffer and analyzed by FACS Array.
(§1) The purified hybridoma antibodies were characterized further based on ELISA and FACS analyses.
A word on the EC50: it is the concentration that produces a half-maximal response. Take B1: it took 0.0775 µg/mL to reach a half-maximal effect (EC50).
On the same count and under the same terms, as for B2, the figure is 0.0454 µg/mL.
Same read-out and setting: as for B3, the figure is 0.0308 µg/mL.
Still for that read-out and setting: the figure for B4 is 0.0389 µg/mL.

Another assay deals with T1, mouse PD-1. The assay can be described thus: assays not detailed.
On to B1, for which the binding result is recorded as “no binding”.
Still for that read-out and setting: the entry for B2 is “no binding”.
As for B3, the binding result is “no binding”.
Same read-out and setting: the entry for B4 is “no binding”.

In another assay the target is T5, human PD-1 extracellular domain fused with human Fc tag (hPD-1-hFc) (human).
T5 construct: also called human PD-1-hFc
T5 sequence (chain, as listed by the source limits assumed): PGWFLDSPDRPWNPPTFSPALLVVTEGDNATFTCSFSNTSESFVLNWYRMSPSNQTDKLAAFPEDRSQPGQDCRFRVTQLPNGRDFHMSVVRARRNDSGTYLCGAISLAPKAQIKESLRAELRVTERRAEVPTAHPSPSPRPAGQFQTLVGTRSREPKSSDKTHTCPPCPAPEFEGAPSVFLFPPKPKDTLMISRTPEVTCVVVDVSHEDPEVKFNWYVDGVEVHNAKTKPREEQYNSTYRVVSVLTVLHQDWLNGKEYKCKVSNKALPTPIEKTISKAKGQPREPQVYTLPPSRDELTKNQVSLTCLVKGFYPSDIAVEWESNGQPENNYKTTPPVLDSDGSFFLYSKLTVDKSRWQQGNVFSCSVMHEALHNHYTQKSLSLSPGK
Briefly: ELISA binding (summary table). As to the method:
(§2) ELISA binding analysis was conducted based on human PD-1-hFc Protein. 96-well plates (Costar, Cat No:9018) were coated with 100 μL of 2 μg/ml PD1-hFc (CrownBio) in coating buffer (PBS, Hyclone, Cat No:SH30256.01B) overnight at 4° C. The wells were aspirated and non-specific binding sites were blocked by adding 200 μL of blocking buffer with 1% (w/v) of bovine serum albumin (BSA, Roche, Cat No: 738328) and incubating for 1 hour at 37° C. After the plates are washed three times with wash buffer (PBS with 0.05%(v/v) Tween20 (Sigma, Cat No:P1379), 100 μL/well of a suitable dilutions of hybridoma supernatant in blocking buffer were added and incubated at room temperature for 1 hour. The plates were washed and incubated with 100 μL/well of Goat anti-Mouse IgG (H+L) (Thermo, Cat No: 31432) in blocking buffer for 60 min. After the plates were washed, 100 μL/well of substrate solution (TMB(eBioscience, Cat No:00-4201-56) was added and the plates were incubated for 2min at room temperature. 100 μL/well of stop solution (2N H2SO4) was added to stop the reaction. The colorimetric signals were developed and read at 450 nm using a Auto Plate SpectraMax Plus (Supplier: Molecular Devices; Model: MNR0643; Software: SoftMax Pro v5.4).
as §1
(In general: In an ELISA, binding on a coated surface is turned into a signal by an enzyme label.)
B1 registered an EC50 of 0.0194 µg/mL.
Regarding B2, the EC50 stood at 0.0134 µg/mL.
Take B3: the midpoint of the response, the EC50, lay at 0.0173 µg/mL.
Still for that read-out and setting: the figure for B4 is 0.00932 µg/mL.

The target in the next assay is T2, human CTLA4. The assay can be described thus: Interaction with CTLA4, ICOS CD28; assay not detailed.
On to B1, for which the binding result was “no binding”.
Same read-out and setting: as for B2, the entry is “no binding”.
Consider B3, for which the binding result was “no binding”.
Still for that read-out and setting: as for B4, the entry is “no binding”.

Another assay has as its target human CD28 (human, UniProt P10747 19-152, limits assumed). The description is as above.
In the case of B1, the binding result is listed as “no binding”.
Still for that read-out and setting: the entry for B2 is “no binding”.
On the same count and under the same terms, the entry for B3 is “no binding”; for B4 it is “no binding”.

Another assay has as its target T3, human ICOS. Described as above.
Turning to B1, the binding result was “no binding”.
Still for that read-out and setting: the entry for B2 is “no binding”; for B3 it is “no binding”; for B4 it is “no binding”.

In a further assay the target is T6, human PD-1 extracellular domain fused with mouse Fc (PD-1-mFc) (human, UniProt Q15116 25-170).
T6 construct: extracellular domain; not used because of the label; also called hPD-1-mFc; human PD-1-mouse Fc fusion protein
T6 sequence (Q15116 25-170): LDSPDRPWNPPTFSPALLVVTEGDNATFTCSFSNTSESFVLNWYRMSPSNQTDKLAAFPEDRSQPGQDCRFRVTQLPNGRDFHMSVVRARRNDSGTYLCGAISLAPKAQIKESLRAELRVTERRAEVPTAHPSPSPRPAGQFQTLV
The assay can be described thus: blockage ELISA, coated PD-1-mFc, competitor PDL-1-mFc-biotin. The procedure:
(§3) PD-1-mFc antigen (CrownBio) was suspended in PBS (Hyclone,Cat No:SH30256.01B) buffer (2 ug/ml, 100 ul/ well) and coated on the 96 well plate (costar, Cat No.:9018) 4° C. overnight. Plates were washed 3 times using washing buffer: PBS+0.05% Tween 20(Sigma, Cat No.:P1379). 200 ul of blocking buffer (PBS+1%BSA(Roche, Cat No.:738328)), was added to each well, incubated at 37° C. for 1 hour, and washed 3 times. Various concentrations (suitable dilutions of hybridoma supernatant in PBS) of the anti-PD-1 Abs were added to the wells (100 μl/well) and incubated at 37° C. for 1 hour. […] Secondary antibody (Avidin HRP eBioscience cat No.:E07418-1632, 1:500, 100 ul/well) was added, incubated at 37 ° C. for 0.5 hour, and washed 3 times. TMB (Sigma, Cat No.: T0440, 100 ul/well) was added, and incubated for 3 min at RT. To stop the reaction, 2N H2SO4 (100 ul/well), was added. The colorimetric signals were developed and read at 450 nm using a Auto Plate SpectraMax Plus (Supplier: Molecular Devices; Model: MNR0643; Software: SoftMax Pro v5.4).
as §1
A word on the IC50: it is the concentration needed to halve the response being measured. Regarding B1, the IC50 was 1.11 µg/mL.
Still for that read-out and setting: the figure for B2 is 0.873 µg/mL.
On the same count and under the same terms, the figure for B3 is 0.701 µg/mL; for B4 it is 0.699 µg/mL.

For another assay, the target named is T7, human PD-1 (construct not stated) (human, UniProt Q15116 25-167, limits assumed).
T7 construct: also called PD-1 analyte
T7 sequence (Q15116 25-167 limits assumed): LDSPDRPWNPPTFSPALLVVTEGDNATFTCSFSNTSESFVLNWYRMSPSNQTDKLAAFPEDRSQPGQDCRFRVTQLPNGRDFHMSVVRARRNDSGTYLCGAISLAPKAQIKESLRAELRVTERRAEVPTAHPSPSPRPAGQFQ
Briefly: Biacore, antibody captured, PD-1 analyte. The procedure: (§4) To further characterize the binding characteristics of the antibodies, 10 hybridoma antibodies were profiled using Biacore (Biacore 3000, GE) to elucidate binding kinetics and calculate equilibrium binding constants. This assay was performed by capture method, using the mouse antibody capture kit (BR-1008-38, GE). After diluting anti-mouse Fc mab to 25 μg/ml in pH 5.0 immobilization buffer, immobilization was conducted with the parameters shown in Table 6 at a flow rate of 5 μl/min. The kinetic runs were done by 1) injecting ligand for typical 0.5-1 min at flow rate of 10 μl/min.; 2) injecting analytes of choice for typical 3 min followed by dissociation in running buffer (1× PBS-P20) for typical 5-10 min at flow rate of 30 μl/min.; and 3) injecting regeneration solution 10 mM Glycine pH1.7 for typical 1-2 min at flow rate of 10 μl/min.
For orientation: SPR reads the build-up and loss of mass on a sensor chip optically.
By Kd is commonly meant a measure of binding affinity in units of concentration. Read a low Kd as higher affinity. A word on the koff: it is the rate constant with which the complex falls apart. Read a low koff as slow dissociation. The term kon denotes a measure of how fast the partners come together. B1 gave a Ka of 5.17e+10 M⁻¹, a Kd of 19.3 pM, a koff of 2.88e-05 s⁻¹ and a kon of 1.49e+06 M⁻¹ s⁻¹.
In the same order, the values of B2 are 5.44e+10 M⁻¹, 18.4 pM, 3.67e-05 s⁻¹ and 2e+06 M⁻¹ s⁻¹.
In the same order, the values of B3 are 3.6e+10 M⁻¹, 27.8 pM, 3.92e-05 s⁻¹ and 1.41e+06 M⁻¹ s⁻¹.
In the same order, the values of B4 are 4.06e+10 M⁻¹, 24.6 pM, 4.82e-05 s⁻¹ and 1.96e+06 M⁻¹ s⁻¹.

Another assay addresses T4, human PD-1 on cells (293T cells …). Briefly: FACS blockage on hPD-1-293T cells, competitor biotin PD-L1. As to the method:
(§5) Various concentrations of the testing hybridoma antibodies were added to the cell suspension and incubated at 4° C. for 60 minutes in 96 well plates. […] Plates were washed 3 times, and mouse anti-biotin PE antibody (Biolgend, cat# 409004) was added. Flow cytometric analyses were performed using a FACS Array.
as §1
B1 gave an IC50 of 0.0562 µg/mL.
Still for that read-out and setting: as for B2, the figure is 0.0356 µg/mL; as for B3, 0.0199 µg/mL.
For B4, the IC50 was 0.0289 µg/mL.

The target in the next assay is T6, human PD-1 extracellular domain fused …. The assay can be described thus: blockage ELISA, competitor PDL-1-mFc-biotin (summary table; IC50 in ng/ml in Table 2). The procedure:
as §3
Molecule B1 registered an IC50 of 1.11 µg/mL.
Turning to B2, the IC50 came to 0.873 µg/mL. This IC50 and that of the molecule before are within 1.5-fold of each other.
On the same count and under the same terms, as for B3, the figure is 0.701 µg/mL; as for B4, 0.699 µg/mL.

Another assay concerns the target T7, human PD-1 (construct not stated). Briefly: Biacore (summary table; unit from Table 7). As to the method:
as §4
As for B1, binding was characterised by a dissociation constant (Kd) of 19.3 pM.
For B2, the Kd worked out at 18.4 pM.
In the case of B3, the affinity, expressed as Kd, was 27.8 pM.

The next assay addresses T5, human PD-1 extracellular domain fused …. The assay can be described thus: ELISA on coated PD1-hFc. As to the method:
as §2, §1
Molecule B1 yielded an EC50 of 0.0194 µg/mL.
On the same count and under the same terms, as for B2, the figure is 0.0134 µg/mL.
Still for that read-out and setting: the figure for B3 is 0.0173 µg/mL.
Regarding B4, it took 0.00932 µg/mL to reach a half-maximal effect (EC50).

The target of a further assay is T4, human PD-1 on cells (293T cells …). Briefly: FACS blockage on hPD-1-293T cells, competitor biotin PD-L2. The procedure: as §5, §1
For B1, the IC50 was 0.21 µg/mL.
On the same count and under the same terms, the figure for B2 is 0.063 µg/mL.
For B3, the IC50 was 0.0529 µg/mL.
On the same count and under the same terms, as for B4, the figure is 0.00445 µg/mL.

Values taken from patent publication US20170267762A1 (APOLLOMICS, published 2017).
